Measured values reported in patent US20170247454A1 (Hoffmann-La Roche, published 2017).

Columns and labels:
[1] = target: T1, PD1 glycosylated at Asn58 (human PD1-ECD) (human, UniProt Q15116 25-170, N-glycosylated at Asn58 (position on SEQ ID NO: 70)); assay: SPR (Biacore T200, 25 °C), antibody captured by anti-human IgG, PD1-ECD as analyte, 1:1 Langmuir fit
T1 construct: also called glycosylated PD-1; glycosylated recombinant PD1
Source text: (§1) A surface plasmon resonance (SPR) based assay has been used to determine the kinetic parameters of the binding between […]. Therefore, an anti-human IgG was immobilized by amine coupling to the surface of a (Biacore) CM5 sensor chip. The samples were then captured and hu PD1-ECD was bound to them. The sensor chip surface was regenerated after each analysis cycle. The equilibrium constant and kinetic rate constants were finally gained by fitting the data to a 1:1 langmuir interaction model.
(§2) The samples were injected for 20 seconds with a concentration of 10 nM and bound to the second flow cell.
(§3) Finally the double referenced data was fitted to a 1:1 langmuir interaction model with the Biacore T200 Evaluation Software.

[2] = target: T2, PD1 aglycosylated at Asn58 (human PD1-ECD) (human, UniProt Q15116 25-170, not glycosylated at Asn58 (position on SEQ ID NO: 70)); assay: as above
T2 construct: also called aglycosylated PD-1; non-glycosylated recombinant human PD1
Source text: as §1, §2, §3

[3] = target: T1, PD1 glycosylated at Asn58 (human …); assay: SPR (Biacore T200, 25 °C), antibody captured by anti-human IgG, PD1-ECD as analyte, 1:1 Langmuir fit; PD1 glycosylated at Asn58
Source text: as §1, §2, §3

[4] = target: T2, PD1 aglycosylated at Asn58 (human …); assay: SPR (Biacore T200, 25 °C), antibody captured by anti-human IgG, PD1-ECD as analyte, 1:1 Langmuir fit; PD1 aglycosylated at Asn58
Source text: as §1, §2, §3

T2 sequence (Q15116 25-170 limits assumed): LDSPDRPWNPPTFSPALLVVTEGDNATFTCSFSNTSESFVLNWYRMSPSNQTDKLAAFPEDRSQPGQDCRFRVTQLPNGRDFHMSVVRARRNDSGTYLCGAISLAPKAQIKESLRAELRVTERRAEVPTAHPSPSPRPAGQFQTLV
T1 sequence (Q15116 25-170 limits assumed): as above

B1: PD1-0103-0312 (antibody, V domains shown)
VH: EVQLLESGGGLVQPGGSLRLSCAASGFSFSSYTMSWVRQAPGKGLEWVATISGGGRDIYYPDSVKGRFTISRDNSKNTLYLQMNSLRAEDTAVYYCVLLTGRVYFALDSWGQGTLVTVSS
VL: DIVMTQSPDSLAVSLGERATINCKASESVDTSDNSFIHWYQQKPGQSPKLLIYRSSTLESGVPDRFSGSGSGTDFTLTISSLQAEDVAVYYCQQNYDVPWTFGQGTKVEIK
For B1, the koff [1] was 7.46e-05 s⁻¹, the kon [1] was 777000 M⁻¹ s⁻¹ and the koff [2] was 0.027 s⁻¹. For the same binder, the kon [2] was 336000 M⁻¹ s⁻¹, the Kd [3] was 0.0961 nM and the Kd [4] was 80.2 nM.
